Numbered stars: 1 amine (or outer) side, 2 acyl side, 3 side chain; on linkers, the order of the positions; unused ones are H or OH. Bridge positions count the residues as written; N and C are the ends. Square brackets hold non-standard residues; d marks the D form. Side chains are listed from the residue outwards. Ends that are not written are not given here. * marks the point of attachment. C20 diacid = O=C(O)CCCCCCCCCCCCCCCCCCC(=O)*; γGlu = O=C(O)[C@H](CCC(=O)[*:2])N[*:1]; AEEA = NCCOCCOCC(=O)O

The target of assay [1] is T1, rat calcitonin receptor (rat, UniProt P32214 25-516).
T1 construct: whole, on cells; Cell membranes of transiently transfected BHK tk'ts 13 cells (Assay VIII); also called rCTR; rCT
T1 sequence (looked up): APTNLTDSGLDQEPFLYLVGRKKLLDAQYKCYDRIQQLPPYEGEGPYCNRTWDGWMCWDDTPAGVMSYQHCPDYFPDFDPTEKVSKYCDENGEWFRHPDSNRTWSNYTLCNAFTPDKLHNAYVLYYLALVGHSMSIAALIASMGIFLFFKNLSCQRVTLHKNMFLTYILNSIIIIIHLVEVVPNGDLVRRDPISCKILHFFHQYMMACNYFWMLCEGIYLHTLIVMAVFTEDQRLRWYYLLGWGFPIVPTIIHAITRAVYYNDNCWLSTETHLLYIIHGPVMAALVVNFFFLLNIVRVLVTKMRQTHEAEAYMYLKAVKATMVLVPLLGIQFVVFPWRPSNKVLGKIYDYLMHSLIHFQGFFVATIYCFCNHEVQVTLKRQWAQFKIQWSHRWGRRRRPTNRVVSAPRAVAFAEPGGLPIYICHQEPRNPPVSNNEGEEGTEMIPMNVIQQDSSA
The experiment in a line: SPA competition vs 125I-calcitonin, membranes with rat CTR (Assay VIII).

Assay [2] deals with T1, rat calcitonin receptor. The experiment in a line: ratio IC50 rat calcitonin receptor / IC50 rat amylin receptor.
Assay [3] concerns the target T2, rat amylin receptor (rat calcitonin receptor + rat RAMP 3) (rat, UniProt P32214 25-516; Q9JJ73 23-147).
T2 construct: whole, on cells; Cell membranes of transiently transfected BHK tk'ts 13 cells (Assay VI); also called rAmylin-R; rat amylin 3(a) receptor
T2 sequence (looked up) 1: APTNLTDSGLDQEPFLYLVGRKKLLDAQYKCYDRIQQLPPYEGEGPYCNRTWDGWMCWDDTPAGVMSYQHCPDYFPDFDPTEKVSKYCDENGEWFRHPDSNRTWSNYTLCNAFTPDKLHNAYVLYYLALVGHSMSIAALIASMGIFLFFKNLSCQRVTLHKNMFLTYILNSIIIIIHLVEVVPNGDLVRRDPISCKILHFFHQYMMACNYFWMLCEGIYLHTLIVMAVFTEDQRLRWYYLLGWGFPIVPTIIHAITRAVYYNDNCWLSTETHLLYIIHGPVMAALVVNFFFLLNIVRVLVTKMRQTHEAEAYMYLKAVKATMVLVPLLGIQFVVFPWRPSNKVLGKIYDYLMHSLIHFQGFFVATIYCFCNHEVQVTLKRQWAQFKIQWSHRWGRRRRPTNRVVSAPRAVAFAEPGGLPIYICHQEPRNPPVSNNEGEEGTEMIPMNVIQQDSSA
T2 sequence (looked up) 2: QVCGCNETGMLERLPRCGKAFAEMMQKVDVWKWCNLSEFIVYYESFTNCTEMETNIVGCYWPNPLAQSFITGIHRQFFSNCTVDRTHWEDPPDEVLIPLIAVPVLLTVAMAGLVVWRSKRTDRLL
The assay is described as follows: SPA competition vs 125I-rat amylin, membranes with rat CTR + rat RAMP3 (Assay VI).

Assay [4] has as its target T3, rat calcitonin receptor (rat, UniProt P32214 25-516).
T3 construct: whole, on cells; Membranes prepared from transiently transfected BHK tk'ts 13 cells; also called rCTR; rat calcitonin (a) receptor
T3 sequence (looked up): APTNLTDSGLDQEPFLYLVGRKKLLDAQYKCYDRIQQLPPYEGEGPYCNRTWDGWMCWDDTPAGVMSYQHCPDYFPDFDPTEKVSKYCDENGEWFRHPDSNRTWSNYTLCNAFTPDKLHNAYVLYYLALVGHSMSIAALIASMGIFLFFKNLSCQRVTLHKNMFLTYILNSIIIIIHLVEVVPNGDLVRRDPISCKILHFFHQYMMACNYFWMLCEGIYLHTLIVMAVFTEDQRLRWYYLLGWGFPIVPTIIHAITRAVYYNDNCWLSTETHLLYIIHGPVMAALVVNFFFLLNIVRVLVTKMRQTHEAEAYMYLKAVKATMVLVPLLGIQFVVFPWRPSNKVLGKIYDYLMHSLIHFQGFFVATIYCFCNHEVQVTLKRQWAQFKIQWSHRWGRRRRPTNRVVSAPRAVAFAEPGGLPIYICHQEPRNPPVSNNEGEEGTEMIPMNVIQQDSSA
The assay is described as follows: SPA competition vs 125I-calcitonin, membranes (Assay VIII).

Assay [5] addresses T4, rat amylin receptor (rat calcitonin receptor + rat RAMP 3) (rat, UniProt P32214 25-516; Q9JJ73 23-147).
T4 construct: whole, on cells; Membranes prepared from transiently transfected BHK tk'ts 13 cells; also called rAmylin-R; rat amylin 3(a) receptor
T4 sequence (looked up) 1: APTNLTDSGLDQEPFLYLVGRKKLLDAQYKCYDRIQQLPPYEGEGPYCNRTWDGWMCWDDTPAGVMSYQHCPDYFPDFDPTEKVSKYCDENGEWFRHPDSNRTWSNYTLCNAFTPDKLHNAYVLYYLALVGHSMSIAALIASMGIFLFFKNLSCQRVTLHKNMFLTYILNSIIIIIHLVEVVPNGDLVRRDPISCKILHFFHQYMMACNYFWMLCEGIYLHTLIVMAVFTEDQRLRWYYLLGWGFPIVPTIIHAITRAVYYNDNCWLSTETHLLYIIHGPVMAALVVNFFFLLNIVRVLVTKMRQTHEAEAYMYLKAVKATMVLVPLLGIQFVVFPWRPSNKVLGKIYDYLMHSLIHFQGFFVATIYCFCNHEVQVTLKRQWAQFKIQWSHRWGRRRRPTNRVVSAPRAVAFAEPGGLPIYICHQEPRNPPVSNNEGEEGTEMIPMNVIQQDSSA
T4 sequence (looked up) 2: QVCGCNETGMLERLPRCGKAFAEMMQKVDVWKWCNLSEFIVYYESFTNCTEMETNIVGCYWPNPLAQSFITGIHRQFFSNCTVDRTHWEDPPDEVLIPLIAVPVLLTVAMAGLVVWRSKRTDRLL
The experiment in a line: SPA competition vs 125I-rat amylin, membranes (Assay VI).

B1: N^ε1-[2-[2-[2-[[(4S)-4-carboxy-4-(19-carboxynonadecanoylamino)butanoyl]amino]ethoxy]ethoxy]acetyl]-[Arg17,Pro21,Pro27,Pro29,Pro31]-h-amylin (peptide)
peptide: K([AEEA-γGlu-C20 diacid])CNTATCATQRLANFLRHSSPNFGAIPSPTPVGSNTY-NH2
modifications: disulfide 2-7; N-terminus assumed
SMILES: CC[C@H](C)[C@H](NC(=O)[C@H](C)NC(=O)CNC(=O)[C@H](Cc1ccccc1)NC(=O)[C@H](CC(N)=O)NC(=O)[C@@H]1CCCN1C(=O)[C@H](CO)NC(=O)[C@H](CO)NC(=O)[C@H](Cc1c[nH]cn1)NC(=O)[C@H](CCCNC(=N)N)NC(=O)[C@H](CC(C)C)NC(=O)[C@H](Cc1ccccc1)NC(=O)[C@H](CC(N)=O)NC(=O)[C@H](C)NC(=O)[C@H](CC(C)C)NC(=O)[C@H](CCCNC(=N)N)NC(=O)[C@H](CCC(N)=O)NC(=O)[C@@H](NC(=O)[C@H](C)NC(=O)[C@@H]1CSSC[C@H](NC(=O)[C@@H](N)CCCCNC(=O)COCCOCCNC(=O)CC[C@H](NC(=O)CCCCCCCCCCCCCCCCCCC(=O)O)C(=O)O)C(=O)N[C@@H](CC(N)=O)C(=O)N[C@@H]([C@@H](C)O)C(=O)N[C@@H](C)C(=O)N[C@@H]([C@@H](C)O)C(=O)N1)[C@@H](C)O)C(=O)N1CCC[C@H]1C(=O)N[C@@H](CO)C(=O)N1CCC[C@H]1C(=O)N[C@H](C(=O)N1CCC[C@H]1C(=O)N[C@H](C(=O)NCC(=O)N[C@@H](CO)C(=O)N[C@@H](CC(N)=O)C(=O)N[C@H](C(=O)N[C@@H](Cc1ccc(O)cc1)C(N)=O)[C@@H](C)O)C(C)C)[C@@H](C)O
notes: Acylated analogue of human amylin; also called compound 54
One may read the IC50 as the concentration at which inhibition is half-maximal. In the case of B1, the values for the IC50 (in the assay with rat calcitonin receptor [1]; in assay [3]) were 8.79 nM and 0.049 nM, respectively. The “Ratio rCT/rAmylin binding” value in the assay with rat calcitonin receptor [2] is 179.

B2: N^ε1-[(4S)-4-carboxy-4-[[(4S)-4-carboxy-4-(19-carboxynonadecanoylamino)butanoyl]amino]butanoyl]-[D-Asp14,Arg17,Pro21,Pro27,Arg35]-h-amylin (peptide)
peptide: K([γGlu-γGlu-C20 diacid])CNTATCATQRLA[dD]FLRHSSPNFGAIPSSTNVGSRTY-NH2
modifications: disulfide 2-7; N-terminus assumed
SMILES: CC[C@H](C)[C@H](NC(=O)[C@H](C)NC(=O)CNC(=O)[C@H](Cc1ccccc1)NC(=O)[C@H](CC(N)=O)NC(=O)[C@@H]1CCCN1C(=O)[C@H](CO)NC(=O)[C@H](CO)NC(=O)[C@H](Cc1c[nH]cn1)NC(=O)[C@H](CCCNC(=N)N)NC(=O)[C@H](CC(C)C)NC(=O)[C@H](Cc1ccccc1)NC(=O)[C@@H](CC(=O)O)NC(=O)[C@H](C)NC(=O)[C@H](CC(C)C)NC(=O)[C@H](CCCNC(=N)N)NC(=O)[C@H](CCC(N)=O)NC(=O)[C@@H](NC(=O)[C@H](C)NC(=O)[C@@H]1CSSC[C@H](NC(=O)[C@@H](N)CCCCNC(=O)CC[C@H](NC(=O)CC[C@H](NC(=O)CCCCCCCCCCCCCCCCCCC(=O)O)C(=O)O)C(=O)O)C(=O)N[C@@H](CC(N)=O)C(=O)N[C@@H]([C@@H](C)O)C(=O)N[C@@H](C)C(=O)N[C@@H]([C@@H](C)O)C(=O)N1)[C@@H](C)O)C(=O)N1CCC[C@H]1C(=O)N[C@@H](CO)C(=O)N[C@@H](CO)C(=O)N[C@H](C(=O)N[C@@H](CC(N)=O)C(=O)N[C@H](C(=O)NCC(=O)N[C@@H](CO)C(=O)N[C@@H](CCCNC(=N)N)C(=O)N[C@H](C(=O)N[C@@H](Cc1ccc(O)cc1)C(N)=O)[C@@H](C)O)C(C)C)[C@@H](C)O
As to B2, the IC50 with rat calcitonin receptor [4] stood at 536 nM; in assay [5], 1.69 nM.

B3: [Asp14,Arg17,Pro21,Pro27,Arg35]-h-amylin (peptide)
peptide: KCNTATCATQRLADFLRHSSPNFGAIPSSTNVGSRTY-NH2
modifications: disulfide 2-7
notes: Not acylated
For the molecule B3, the IC50 with rat calcitonin receptor [4] stood at 30.9 nM.

Source of the values: patent US20140087995A1 (published 2014).
